Laboratory results reported in patent publication US20260159579A1 (Pfizer, published 2026).
Numbering of substitutions follows the chain as printed. “And” between values parts separate entries of the source, which are not always exact repeats. Identical values can stand only once. Like-named read-outs stand apart in the source and are kept apart here.

Assays:
[1] = target: Mouse Fc-mouse GDF15 (Mu IgG1Fc_Fxa_Mu GDF15) (mouse); test: SPR BIAcore T200, 37C; Fc-GDF15 captured, IgG as analyte
[2] = target: T1, Mouse Fc-human GDF15 (Mu IgG1Fc_Fxa_Hu GDF15) (human); test: as above
T1 construct: Whole entry is the fusion: mouse IgG1 Fc, FXa site and linker, mature human GDF15; described as dimeric; also called Murine dimeric IgG1 Fc-human GDF-15 with FXa cleavage site; control human GDF15
T1 chain: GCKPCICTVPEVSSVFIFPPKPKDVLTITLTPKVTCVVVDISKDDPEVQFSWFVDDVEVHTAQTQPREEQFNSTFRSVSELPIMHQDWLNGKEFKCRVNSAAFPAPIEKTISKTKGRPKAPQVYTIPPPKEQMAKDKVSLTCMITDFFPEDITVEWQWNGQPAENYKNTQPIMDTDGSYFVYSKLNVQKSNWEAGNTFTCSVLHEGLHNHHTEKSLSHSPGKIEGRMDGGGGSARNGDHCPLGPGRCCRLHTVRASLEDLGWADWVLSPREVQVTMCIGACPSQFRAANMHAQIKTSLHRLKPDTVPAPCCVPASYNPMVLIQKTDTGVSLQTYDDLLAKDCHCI
Description: (§1) Mouse Fc-human GDF15 (Mu IgG1Fc_Fxa_Hu GDF15; SEQ ID NO:2), Mouse Fc-mouse GDF15 (Mu IgG1Fc_Fxa_Mu GDF15; SEQ ID NO:5) and Mouse Fc-cynomolgus monkey GDF15 (Mu IgG1Fc_Fxa_Cyno GDF15; SEQ ID NO:4) were captured onto three different flow cells of a CM4 sensorchip (catalogue number BR100534, GE Healthcare) surface using the Mouse Antibody Capture Kit (BR100838, GE Healthcare) according to the manufacturer's protocol. The running and sample bufferwas 10 mM HEPES pH 7.4, 0.15M NaCl, 3 mM EDTA, 0.05% P-20 (HBS-EP+). The final capture levels of Mu IgG1Fc_Fxa_Hu GDF15, Mu IgG1Fc_Fxa_Mu GDF15 and Mu IgG1Fc_Fxa_Cyno GDF15 were 40 resonance units (RU), 32 RU and 25 RU respectively. Flow cell 1 was used as a reference flow cell. […] The dissociation was monitored for 2.8 hours and the surface was regenerated with 10 mM Glycine pH 1.7. Binding affinities and rate constants were determined for murine and cynomolgus monkey GDF15 by fitting the resulting sensorgram data to a 1:1 Langmuir model in BIAcore T200 Evaluation software version 2.0 (GE Healthcare).
(§2) Additionally, the binding of clone GDF15_001 to cynomolgus monkey and mouse GDF15 was measured using above mentioned BIAcore assay (Table 7).

[3] = target: T1, Mouse Fc-human GDF15 (Mu IgG1Fc_Fxa_Hu …); test: as above
Description: as §1, §2

[4] = target: T2, Mouse Fc-cynomolgus monkey GDF15 (Mu IgG1Fc_Fxa_Cyno GDF15) (cynomolgus monkey); test: as above
T2 construct: Whole entry is the fusion: mouse IgG1 Fc, FXa site and linker, cynomolgus GDF15; described as dimeric; also called Murine dimeric IgG1 Fc-cyno GDF-15 with FXa cleavage site
T2 chain: T1 chain with H239R, R254H, A287E, T296M, S297N, I345V
Description: as §1, §2

[5] = target: Mouse Fc-mouse GDF15 (Mu IgG1Fc_Fxa_Mu GDF15) (mouse); test: SPR BIAcore T200, 37C; Fc-GDF15 captured, IgG as analyte; average of runs
[6] = target: T1, Mouse Fc-human GDF15 (Mu IgG1Fc_Fxa_Hu …); test: SPR BIAcore T200, 37C; Fc-GDF15 captured, IgG as analyte; apparent KD
[7] = target: T1, Mouse Fc-human GDF15 (Mu IgG1Fc_Fxa_Hu …); test: SPR BIAcore T200, 37C; Fc-GDF15 captured, IgG as analyte; average of runs
Description: as §1, §2

[8] = target: T1, Mouse Fc-human GDF15 (Mu IgG1Fc_Fxa_Hu …); test: as above
Description: as §1, §2

[9] = target: T2, Mouse Fc-cynomolgus monkey GDF15 (Mu …); test: as above
Description: as §1, §2

[10] = target: T1, Mouse Fc-human GDF15 (Mu IgG1Fc_Fxa_Hu …); test: SPR BIAcore T200, 37C; Fc-GDF15 captured, IgG as analyte; average of runs; apparent KD

B1: GDF15_001 (antibody, human IgG1, kappa, V domains shown)
VH: QVQLVQSGAEVKKPGSSVKVSCKASGYTFSSYNIDWVRQAPGQGLEWMGGINPIFGTAFYNQKFQGRVTITADESTSTAYMELSSLRSEDTAVYYCAREAITTVGAMDHWGQGTLVTVSS
VL: EIVLTQSPATLSLSPGERATLSCRTSQSVHNYLAWYQQKPGQAPRLLIYDASTRADGIPARFSGSGSGTDFTLTISSLEPEDFAVYYCQQFWSWPWTFGQGTKVEIKR
notes: Tested in bivalent format; IgG1 heavy chain, kappa light chain; also called ponsegromab; PF-06946860
- Kd [1]: 0.114 nM and 0.175 nM and 0.138 nM
- T½ min [1]: 39.6 min and 26.8 min and 33.3 min
- koff [1]: 0.000292 s⁻¹ and 0.000431 s⁻¹ and 0.000347 s⁻¹
- kon [1]: 2.6e+06 M⁻¹ s⁻¹ and 2.5e+06 M⁻¹ s⁻¹ (2×)
- Kd [2]: < 0.01 nM
- T½ min [2]: 2420 min and 1250 min and 1850 min
- koff [2]: 4.78e-06 s⁻¹ and 9.22e-06 s⁻¹ and 6.25e-06 s⁻¹
- kon [2]: 1.69e+06 M⁻¹ s⁻¹ and 2.18e+06 M⁻¹ s⁻¹ and 2.03e+06 M⁻¹ s⁻¹
- T½ min [3]: 1250 min and 1850 min and 2420 min
- koff [3]: 9.22e-06 s⁻¹ and 6.25e-06 s⁻¹ and 4.78e-06 s⁻¹
- kon [3]: 1.69e+06 M⁻¹ s⁻¹ and 2.03e+06 M⁻¹ s⁻¹ and 2.18e+06 M⁻¹ s⁻¹
- Kd [4]: 8.86 pM and 6.71 pM and 9.26 pM
- T½ min [4]: 886 min and 928 min and 1120 min
- koff [4]: 1.3e-05 s⁻¹ and 1.24e-05 s⁻¹ and 1.03e-05 s⁻¹
- kon [4]: 1.47e+06 M⁻¹ s⁻¹ and 1.85e+06 M⁻¹ s⁻¹ and 1.12e+06 M⁻¹ s⁻¹
- Kd [5]: 0.142 nM
- koff [5]: 0.000356 s⁻¹
- kon [5]: 2.51e+06 M⁻¹ s⁻¹
- Kd [6]: < 0.01 nM
- Kd [7]: < 0.01 nM
- koff [7]: 6.75e-06 s⁻¹
- kon [7]: 1.97e+06 M⁻¹ s⁻¹
- koff [8]: 6.75e-06 s⁻¹
- kon [8]: 1.97e+06 M⁻¹ s⁻¹
- Kd [9]: 8.28 pM
- koff [9]: 1.19e-05 s⁻¹
- kon [9]: 1.48e+06 M⁻¹ s⁻¹
- Kd [10]: < 0.01 nM
